target: T1, Ebola virus glycoprotein (EBOV GP), trimer of the GP1 + GP2 heterodimer lacking the transmembrane domain (Ebola virus, Mayinga strain, UniProt Q05320); test: SPR; details: both partners purified
T1 construct: also called soluble Ebola virus glycoprotein; EBOV GP trimer complex of GP1 + GP2 heterodimer; source: Drosophila S2 cells; supplied by Integrated Biotherapeutics, purified
T1 sequence (Q05320 33-637, one chain of several): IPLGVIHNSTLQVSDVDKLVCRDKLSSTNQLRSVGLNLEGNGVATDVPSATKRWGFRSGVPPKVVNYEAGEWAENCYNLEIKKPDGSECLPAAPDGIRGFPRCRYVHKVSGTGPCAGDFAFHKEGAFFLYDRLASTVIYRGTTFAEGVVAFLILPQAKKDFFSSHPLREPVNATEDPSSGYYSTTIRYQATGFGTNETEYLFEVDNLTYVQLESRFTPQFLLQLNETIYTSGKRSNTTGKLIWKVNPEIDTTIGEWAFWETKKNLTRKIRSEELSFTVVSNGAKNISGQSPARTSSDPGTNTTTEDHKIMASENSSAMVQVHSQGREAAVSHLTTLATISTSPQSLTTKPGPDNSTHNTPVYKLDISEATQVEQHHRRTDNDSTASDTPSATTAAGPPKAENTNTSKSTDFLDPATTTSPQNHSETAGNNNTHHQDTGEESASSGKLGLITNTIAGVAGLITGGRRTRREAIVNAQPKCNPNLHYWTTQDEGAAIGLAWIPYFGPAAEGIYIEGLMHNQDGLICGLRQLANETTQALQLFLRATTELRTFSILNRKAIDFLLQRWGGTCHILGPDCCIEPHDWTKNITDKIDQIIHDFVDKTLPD

Row | Binder | binding result
1 | mAb100 (antibody, V domains shown) VH: QVQLQESGPGLVKPSDTLSLTCTVSGGSLSSFYWSWIRQPPGKGLEWIGYIYYSGSPNYSPSLESRVTMSVDTTRNQISLKLDSVTAADTAVYYCVRASRSYYWGSYRPTAFDSWGQGTLVTVSS VL: YELTQPLSVSVSPGQTAIFTCSGDNLGDKYVCWFQQRPGQSPMLLIYQDNKRPSGIPERFSGSNSGNTATLTISGTQSTDEADYYCQTWDSTVVFGGGTKLTVL | binds
2 | ADI-15946 (antibody, V domains shown, also called PE-64) VH: EVQLVESGGGLVKPGGSLRLSCAASGFTFSNAWMSWVRQAPGKGLEWVGRIKSKTDGGTIDYAAPVKGRFTISRDDSKNTVYLQMTSLKTEDTAVYYCTTYTEDMRYFDWLLRGGETFDYWGQGTLVTVSS VL: DIRLTQSPSSLSASVGDRVTITCRASHYISTYLNWYQQKPGKAPKLLIYAASNLQSGVPSRFSGSGFGTDFSLTISSLQPEDFATYHCQQSYSTPGRYTFGQGTKVEIK | binds
3 | CA45 (antibody, V domains shown) VH: QVQLQEWGEGLVKPSETLSLTCAVYGGSISGYYHWNWIRLPPGKGLEWIGNIDGNSASTNYNPSLKTRVTISKDTSKNQISLKVRSLTAADTAVYYCARDPGFTIFGVVITSWSGLDSWGQGAVVTVSS VL: DIQMTQSPSSLSASVGDTVTITCRASQSISNNLAWYQQRPRRAPQLLIYAASNLASGVPSRFSGSGSGTDFTLTISSLQAEDFAAYYCQQHNTLPLTFGGGTKVEIK | binds

target: T2, Ebola virus glycoprotein (EBOV GP), trimer of the GP1 + GP2 heterodimer lacking the transmembrane domain (Ebola virus, Mayinga strain, UniProt Q05320); test: SPR; details: both partners purified
T2 construct: also called soluble Ebola virus glycoprotein; EBOV GP trimer complex of GP1 + GP2 heterodimer; source: Drosophila S2 cells; supplied by Integrated Biotherapeutics, purified
T2 sequence (Q05320 33-637, one chain of several): as the sequence (Q05320 33-637, one chain of several) above

Row | Binder | binding result
4 | ADI-15878 (antibody, V domains shown, also called PE-87; Control PE-87; source: supplied in purified form (Integrated Biotherapeutics)) VH: QVQLVQSGVTLVQPGGSLRVSCAASGFTFSSYAMSWVRQAPGKGLEWVSAISGLGGSTYYADSVKGRFTISRDNSKNTLYLQMNSLRAEDTAVYYCAKDHRVWAAGYHFDYWGQGALVTVSS VL: DIVLTQSPSTLSASVGDRVTITCRASQSISSWLAWYQQKPGEAPKLLISDASSLESGVPSRFSGSGSGTEFTLTISSLQPDDFATYYCQQYYSSPIFGGGTKVEIK | binds
5 | KZ52 (antibody, V domains shown, source: supplied in purified form (Integrated Biotherapeutics)) VH: EVQLLESGGGLVKPGGSLRLSCAASGFTLINYRMNWVRQAPGKGLEWVSSISSSSSYIHYADSVKGRFTISRDNAENSLYLQMNSLRAEDTAVYYCVREGPRATGYSMADVFDIWGQGTMVTVSS VL: not shown | binds
6 | mAb114 (antibody, V domains shown, source: supplied in purified form (Integrated Biotherapeutics)) VH: EVQLVESGGGLIQPGGSLRLSCAASGFALRMYDMHWVRQTIDKRLEWVSAVGPSGDTYYADSVKGRFAVSRENAKNSLSLQMNSLTAGDTAIYYCVRSDRGVAGLFDSWGQGILVTVSS VL: DIQMTQSPSSLSASVGDRITITCRASQAFDNYVAWYQQRPGKVPKLLISAASALHAGVPSRFSGSGSGTHFTLTISSLQPEDVATYYCQNYNSAPLTFGGGTKVEIK | binds
